In IntAct's records for PubMed 28533443:

B1: Complement factor H-related protein 1 (Homo sapiens), Q03591 (parent)
chain: MWLLVSVILISRISSVGGEATFCDFPKINHGILYDEEKYKPFSQVPTGEVFYYSCEYNFVSPSKSFWTRITCTEEGWSPTPKCLRLCFFPFVENGHSESSGQTHLEGDTVQIICNTGYRLQNNENNISCVERGWSTPPKCRSTDTSCVNPPTVQNAHILSRQMSKYPSGERVRYECRSPYEMFGDEEVMCLNGNWTEPPQCKDSTGKCGPPPPIDNGDITSFPLSVYAPASSVEYQCQNLYQLEGNKRITCRNGQWSEPPKCLHPCVISREIMENYNIALRWTAKQKLYLRTGESAEFVCKRGYRLSSRSHTLRTTCWDGKLEYPTCAKR
partner: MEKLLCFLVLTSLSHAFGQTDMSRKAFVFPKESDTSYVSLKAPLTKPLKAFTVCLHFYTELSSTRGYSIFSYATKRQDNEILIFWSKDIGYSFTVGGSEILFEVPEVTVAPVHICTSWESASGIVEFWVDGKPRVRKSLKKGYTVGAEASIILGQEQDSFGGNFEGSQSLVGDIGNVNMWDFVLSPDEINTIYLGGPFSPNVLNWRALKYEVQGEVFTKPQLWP

Variants of: B1
Settings: with crp_human CRP

| Variant | effect of a mutation on the interaction |
| --- | --- |
| MWLLVSVILISRISSVGGEATFCDFPKINHGILYDEEKYKPFSQVPTGEVFYYSCEYNFVSPSKSFWTRITCTEEGWSPTPKCLRLCFFPFVENGHSESSGQTHLEGDTVQIICNTGYRLQNNENNISCVERGWSTPPKCRSTDTSCVNPPTVQNAYIVSRQMSKYPSGERVRYQCRSPYEMFGDEEVMCLNGNWTEPPQCKDSTGKCGPPPPIDNGDITSFPLSVYAPASSVEYQCQNLYQLEGNKRITCRNGQWSEPPKCLHPCVISREIMENYNIALRWTAKQKLYLRTGESAEFVCKRGYRLSSRSHTLRTTCWDGKLEYPTCAKR [H157Y;L159V;E175Q] | with no effect |
